Measurements published in patent US20030119727A1 (Genentech, published 2003).
Positions of bridges follow the written chain, without caps; N, C: chain ends. No end group written: not given here.

What was measured:
[1] = molecular target: T1, recombinant human Factor VIIa (human, UniProt P08709 61-212; P08709 213-466); assay: competition ELISA
T1 chain 1: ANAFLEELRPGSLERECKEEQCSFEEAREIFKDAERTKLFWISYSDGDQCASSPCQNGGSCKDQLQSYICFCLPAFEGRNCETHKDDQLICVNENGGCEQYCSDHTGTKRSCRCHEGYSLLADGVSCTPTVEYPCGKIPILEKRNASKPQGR
T1 chain 2: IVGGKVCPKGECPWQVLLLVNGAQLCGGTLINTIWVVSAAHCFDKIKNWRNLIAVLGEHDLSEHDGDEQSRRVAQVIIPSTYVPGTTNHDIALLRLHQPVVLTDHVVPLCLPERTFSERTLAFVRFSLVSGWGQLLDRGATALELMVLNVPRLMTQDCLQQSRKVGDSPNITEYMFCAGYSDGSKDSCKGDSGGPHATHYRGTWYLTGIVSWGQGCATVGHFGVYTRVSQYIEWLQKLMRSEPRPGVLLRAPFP

[2] = molecular target: T2, recombinant human Factor VIIa (human, UniProt P08709 61-212; P08709 213-466); assay: phage binding to coated wells
T2 construct: Immobilized directly on microtiter plates at 2 ug/ml; also called FVIIa
T2 sequence (looked up) 1: T1 chain 1
T2 sequence (looked up) 2: T1 chain 2

BSA = molecular target: T3, BSA (UniProt P02769 25-607); assay: phage binding to coated wells
T3 construct: Control coating; also called bovine serum albumin
T3 sequence (P02769 25-607 limits assumed): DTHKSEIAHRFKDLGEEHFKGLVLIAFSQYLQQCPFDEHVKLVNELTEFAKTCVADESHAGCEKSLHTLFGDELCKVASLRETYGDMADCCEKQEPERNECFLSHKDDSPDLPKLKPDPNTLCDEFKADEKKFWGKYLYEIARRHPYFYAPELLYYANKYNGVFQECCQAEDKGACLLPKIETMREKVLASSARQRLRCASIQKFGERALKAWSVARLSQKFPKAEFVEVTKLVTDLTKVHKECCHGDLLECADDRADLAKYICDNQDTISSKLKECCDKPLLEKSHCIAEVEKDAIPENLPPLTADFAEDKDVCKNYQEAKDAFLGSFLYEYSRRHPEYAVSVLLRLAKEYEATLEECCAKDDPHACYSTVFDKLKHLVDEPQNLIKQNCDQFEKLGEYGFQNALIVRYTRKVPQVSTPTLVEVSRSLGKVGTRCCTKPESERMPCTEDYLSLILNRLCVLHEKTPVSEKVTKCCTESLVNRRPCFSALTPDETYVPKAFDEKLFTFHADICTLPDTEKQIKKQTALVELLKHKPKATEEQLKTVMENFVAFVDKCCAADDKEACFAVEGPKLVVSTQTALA

[3] = molecular target: T2, recombinant human Factor VIIa; assay: FVIIa Binding ELISA, competition with 20 nM TF147b on immobilized FVIIa
Experimental: FVIIa Binding ELISA—The ability of peptides to compete with biotinylated versions of TF76 (e.g. TF147b, or other peptides described herein that could be biotinylated as described) for binding to FVIIa was monitored using a FVIIa Binding ELISA or a TF-FVIIa Binding ELISA. Microtiter plates were coated overnight with 2 μg/ml recombinant human FVIIa or 2 μg/ml TF₁₋₂₄₃ (Paborsky, L. R. et al. (1991) J. Biol. Chem. 266: 21911) in 50 mM ammonium bicarbonate pH 9 at 4° C.; all other steps were performed at room temperature. Plates were then blocked with 1% BSA in Assay Buffer (50 mM HEPES, pH 7.2, 5 mM CaCl₂, 150 mM NaCl). […] The microtiter plate was washed 3 times with Assay Buffer plus 0.05% Tween 20 and the biotinylated-peptide bound was detected with a Streptavidin/HRP conjugate (Streptavidin-POD, Roche Molecular Biochemicals). The amount of HRP bound was measured using ABTS/H₂O₂ substrate (Kirkegaard and Perry Laboratories) and monitoring the absorbance at 405 nm. The absorbance at 405 nm was plotted versus the concentration of peptide originally added to the well. Sigmoidal curves were fit to a four parameter equation by nonlinear regression analysis (Marquardt, J. Soc. Indust. Appl. Math. 11:431-441 (1963); the concentration of each peptide required to give a half-maximal signal in the assay was calculated from the curves and is referred to as the IC₅₀ value. […]

B1: peptide TF76 (Ac-ALCDDPRVDRWYCQFVEG-NH2) (peptide)
peptide: Ac-ALCDDPRVDRWYCQFVEG-NH2
modifications: disulfide 3-13 (inferred)
For B1, which IC50 [1] is on record?
The IC50 was 21 nM.

B2: Phage bearing the TF56 peptide sequence EAALCDDPRLDRWYCIFAGE (Pool E clone, polyvalent phage display) (peptide)
peptide: EAALCDDPRLDRWYCIFAGE
modifications: not fully specified (bridges); cysteine pairing not given here; also: displayed on phage, coat protein fusion partner not given here
notes: also called this clone
Does B2 bind [2]?
Result: binds

Does B2 bind (BSA)?
Result: no binding

B3: peptide TF151 (peptide)
peptide: ALCDNPRIDRWYCQFVEG
modifications: disulfide 3-13 (inferred)
notes: Chemically synthesized, with the disulfide oxidized
For B3, which IC50 [3] is on record?
The IC50 was 2 nM.

B4: TF151-Fc fusion (Fc fusion)
chain: SQAQRRAVGALCDNPRIDRWYCQFVEGGGGSSG
modifications: cysteine pairing not given here; also: fused to human IgG1 Fc, dimer
notes: not shown: Fc portion of the human IgG1
With B4 as the binder, how does the IC50 [3] read?
Its IC50 is 3 nM.
